The supplement of paper PMC5998384

System: HeLa Kyoto
Assay: melting temperature (median over replicates), in situ; higher = more thermally stable
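Note: HeLa Kyoto cells synchronized by double thymidine or nocodazole block, proteins quantified by TMT10plex mass spectrometry, three independent biological replicates.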

Sequence of ARF1 (chain, as listed by the source): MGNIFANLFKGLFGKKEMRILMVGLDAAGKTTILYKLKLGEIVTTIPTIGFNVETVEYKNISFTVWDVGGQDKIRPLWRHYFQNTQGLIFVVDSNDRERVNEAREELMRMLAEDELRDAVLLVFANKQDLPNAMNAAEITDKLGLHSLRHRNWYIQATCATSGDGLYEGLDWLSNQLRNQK

Row | Substance | melting temperature (cell cycle stage: G1/S) [°C] | melting temperature (cell cycle stage: mitosis) [°C]
1 | MAGYEYVSPEQLAGFDKYKYSAVDTNPLSLYVMHPFWNTIVKVFPTWLAPNLITFSGFLLVVFNFLLMAYFDPDFYASAPGHKHVPDWVWIVVGILNFVAYTLDGVDGKQARRTNSSTPLGELFDHGLDSWSCVYFVVTVYSIFGRGSTGVSVFVLYLLLWVVLFSFILSHWEKYNTGILFLPWGYDISQVTISFVYIVTAVVGVEAWYEPFLFNFLYRDLFTAMIIGCALCVTLPMSLLNFFRSYKNNTLKLNSVYEAMVPLFSPCLLFILSTAWILWSPSDILELHPRVFYFMVGTAFANSTCQLIVCQMSSTRCPTLNWLLVPLFLVVLVVNLGVASYVESILLYTLTTAFTLAHIHYGVRVVKQLSSHFQIYPFSLRKPNSDULGMEEKNIGL [EPT1] | 52.8 | –
2 | MAIFRQLSLGAKATLAAVTVFVSMIASRSYLAESLELRAWRWLLRLQLALFVNSLLLIGSLYIWRSTVSNLCHSPAAESTCFQLWKVVVLAFLALAHSSFFTMFFLVAEEPYLFSLAAYSCLGAYIIMLFFLFILSGMEQAYQLLAWRSGRVVGSLEKTRKLVLRPALAVGVTAVLSVAGILNAAQPPAVKTVEVPIHQLPASMNNLKIVLLSDIHLGPTVGRTKMEMFVRMVNVLEPDITVIVGDLSDSEASVLRTAVAPLGQLHSHLGAYFVTGNHEYYTSDVSNWFALLESLHVQPLHNENVKISATRAQRGGGGSGSGSEDEDWICLAGVDDIEADILHYSGHGMDLDKALEGCSPDHTIILLAHQPLAAKRALQARPDINLILSGHTHAGQIFPLNVAAYLLNPFFAGLYQVAQATFVYVSPGTAYYGIPMRLGSRAEITELILQRSP [TMPPE] | 53.6 | 53.6
3 | MTVKTEAAKGTLTYSRMRGMVAILIAFMKQRRMGLNDFIQKIANNSYACKHPEVQSILKISQPQEPELMNANPSPPPSPSQQINLGPSSNPHAKPSDFHFLKVIGKGSFGKVLLARHKAEEVFYAVKVLQKKAILKKKEEKHIMSERNVLLKNVKHPFLVGLHFSFQTADKLYFVLDYINGGELFYHLQRERCFLEPRARFYAAEIASALGYLHSLNIVYRDLKPENILLDSQGHIVLTDFGLCKENIEHNSTTSTFCGTPEYLAPEVLHKQPYDRTVDWWCLGAVLYEMLYGLPPFYSRNTAEMYDNILNKPLQLKPNITNSARHLLEGLLQKDRTKRLGAKDDFMEIKSHVFFSLINWDDLINKKITPPFNPNVSGPNDLRHFDPEFTEEPVPNSIGKSPDSVLVTASVKEAAEAFLGFSYAPPTDSFL [SGK1] | – | 48.3
4 | MQPPPPGPLGDCLRDWEDLQQDFQNIQETHRLYRLKLEELTKLQNNCTSSITRQKKRLQELALALKKCKPSLPAEAEGAAQELENQMKERQGLFFDMEAYLPKKNGLYLSLVLGNVNVTLLSKQAKFAYKDEYEKFKLYLTIILILISFTCRFLLNSRVTDAAFNFLLVWYYCTLTIRESILINNGSRIKGWWVFHHYVSTFLSGVMLTWPDGLMYQKFRNQFLSFSMYQSFVQFLQYYYQSGCLYRLRALGERHTMDLTVEGFQSWMWRGLTFLLPFLFFGHFWQLFNALTLFNLAQDPQCKEWQVLMCGFPFLLLFLGNFFTTLRVVHHKFHSQRHGSKKD [TMPIT] | 54.2 | 53.4
5 | MAGSEPRSGTNSPPPPFSDWGRLEAAILSGWKTFWQSVSKERVARTTSREEVDEAASTLTRLPIDVQLYILSFLSPHDLCQLGSTNHYWNETVRDPILWRYFLLRDLPSWSSVDWKSLPDLEILKKPISEVTDGAFFDYMAVYRMCCPYTRRASKSSRPMYGAVTSFLHSLIIQNEPRFAMFGPGLEELNTSLVLSLMSSEELCPTAGLPQRQIDGIGSGVNFQLNNQHKFNILILYSTTRKERDRAREEHTSAVNKMFSRHNEGDDQQGSRYSVIPQIQKVCEVVDGFIYVANAEAHKRHEWQDEFSHIMAMTDPAFGSSGRPLLVLSCISQGDVKRMPCFYLAHELHLNLLNHPWLVQDTEAETLTGFLNGIEWILEEVESKRAR [FBXO4] | – | 52
6 | MCVRSCFQSPRLQWVWRTAFLKHTQRRHQGSHRWTHLGGSTYRAVIFDMGGVLIPSPGRVAAEWEVQNRIPSGTILKALMEGGENGPWMRFMRAEITAEGFLREFGRLCSEMLKTSVPVDSFFSLLTSERVAKQFPVMTEAITQIRAKGLQTAVLSNNFYLPNQKSFLPLDRKQFDVIVESCMEGICKPDPRIYKLCLEQLGLQPSESIFLDDLGTNLKEAARLGIHTIKVNDPETAVKELEALLGFTLRVGVPNTRPVKKTMEIPKDSLQKYLKDLLGIQTTGPLELLQFDHGQSNPTYYIRLANRDLVLRKKPPGTLLPSAHAIEREFRIMKALANAGVPVPNVLDLCEDSSVIGTPFYVMEYCPGLIYKDPSLPGLEPSHRRAIYTAMNTVLCKIHSVDLQAVGLEDYGKQGDYIPRQVRTWVKQYRASETSTIPAMERLIEWLPLHLPRQQRTTVVHGDFRLDNLVFHPEEPEVLAVLDWELSTLGDPLADVAYSCLAHYLPSSFPVLRGINDCDLTQLGIPAAEEYFRMYCLQMGLPPTENWNFYMAFSFFRVAAILQGVYKRSLTGQASSTYAEQTGKLTEFVSNLAWDFAVKEGFRVFKEMPFTNPLTRSYHTWARPQSQWCPTGSRSYSSVPEASPAHTSRGGLVISPESLSPPVRELYHRLKHFMEQRVYPAEPELQSHQASAARWSPSPLIEDLKEKAKAEGLWNLFLPLEADPEKKYGAGLTNVEYAHLCELMGTSLYAPEVCNCSAPDTGNMELLVRYGTEAQKARWLIPLLEGKARSCFAMTEPQVASSDATNIEASIREEDSFYVINGHKWWITGILDPRCQLCVFMGKTDPHAPRHRQQSVLLVPMDTPGIKIIRPLTVYGLEDAPGGHGEVRFEHVRVPKENMVLGPGRGFEIAQGRLGPGRIHHCMRLIGFSERALALMKARVKSRLAFGKPLVEQGTVLADIAQSRVEIEQARLLVLRAAHLMDLAGNKAAALDIAMIKMVAPSMASRVIDRAIQAFGAAGLSSDYPLAQFFTWARALRFADGPDEVHRATVAKLELKHRI [ACAD10] | – | 50.7
7 | MGRLLRAARLPPLLSPLLLLLVGGAFLGACVAGSDEPGPEGLTSTSLLDLLLPTGLEPLDSEEPSETMGLGAGLGAPGSGFPSEENEESRILQPPQYFWEEEEELNDSSLDLGPTADYVFPDLTEKAGSIEDTSQAQELPNLPSPLPKMNLVEPPWHMPPREEEEEEEEEEEREKEEVEKQEEEEEEELLPVNGSQEEAKPQVRDFSLTSSSQTPGATKSRHEDSGDQASSGVEVESSMGPSLLLPSVTPTTVTPGDQDSTSQEAEATVLPAAGLGVEFEAPQEASEEATAGAAGLSGQHEEVPALPSFPQTTAPSGAEHPDEDPLGSRTSASSPLAPGDMELTPSSATLGQEDLNQQLLEGQAAEAQSRIPWDSTQVICKDWSNLAGKNYIILNMTENIDCEVFRQHRGPQLLALVEEVLPRHGSGHHGAWHISLSKPSEKEQHLLMTLVGEQGVVPTQDVLSMLGDIRRSLEEIGIQNYSTTSSCQARASQVRSDYGTLFVVLVVIGAICIIIIALGLLYNCWQRRLPKLKHVSHGEELRFVENGCHDNPTLDVASDSQSEMQEKHPSLNGGGALNGPGSWGALMGGKRDPEDSDVFEEDTHL [PODXL2] | 54 | –
8 | ARF1 | 59.6 | 57.8
9 | MASKTKASEALKVVARCRPLSRKEEAAGHEQILTMDVKLGQVTLRNPRAAPGELPKTFTFDAVYDASSKQADLYDETVRPLIDSVLQGFNGTVFAYGQTGTGKTYTMQGTWVEPELRGVIPNAFEHIFTHISRSQNQQYLVRASYLEIYQEEIRDLLSKEPGKRLELKENPETGVYIKDLSSFVTKNVKEIEHVMNLGNQTRAVGSTHMNEVSSRSHAIFIITVECSERGSDGQDHIRVGKLNLVDLAGSERQNKAGPNTAGGAATPSSGGGGGGGGSGGGAGGERPKEASKINLSLSALGNVIAALAGNRSTHIPYRDSKLTRLLQDSLGGNAKTIMVATLGPASHSYDESLSTLRFANRAKNIKNKPRVNEDPKDTLLREFQEEIARLKAQLEKRGMLGKRPRRKSSRRKKAVSAPPGYPEGPVIEAWVAEEEDDNNNNHRPPQPILESALEKNMENYLQEQKERLEEEKAAIQDDRSLVSEEKQKLLEEKEKMLEDLRREQQATELLAAKYKAMESKLLIGGRNIMDHTNEQQKMLELKRQEIAEQKRREREMQQEMMLRDEETMELRGTYTSLQQEVEVKTKKLKKLYAKLQAVKAEIQDQHDEYIRVRQDLEEAQNEQTRELKLKYLIIENFIPPEEKNKIMNRLFLDCEEEQWKFQPLVPAGVSSSQMKKRPTSAVGYKRPISQYARVAMAMGSHPRYRAENIMFLELDVSPPAVFEMEFSHDQEQDPRALHMERLMRLDSFLERPSTSKVRKSRSWCQSPQRPPPSTTHASLASASLRPATVADHE [KIF3C] | – | 50.4
